Source: patent US20050095247A1 (UNIVERSITY OF BRITISH COLUMBIA, published 2005)

Target: T1, calmodulin (Homo sapiens (Human), UniProt P0DP23 2-149)
T1 construct: also called calmodulin-agarose
Test: pull-down of purified protein on calmodulin-agarose; anti-EF-1α immunoblot

B1: macrophage EF-1α (murine, from RAW 264.7 cells) (other)
chain: GKEKTHINIVVIGHVDSGKSTTTGHLIYKCGGIDKRTIEKFEKEAAEMGKGSFKYAWVLDKLKAERERGITIDISLWKFETSKYYVTIIDAPGHRDFIKNMITGTSQADCAVLIVAAGVGEFEAGISKNGQTREHALLAYTLGVKQLIVGVNKMDSTEPPYSQKRYEEIVKEVSTYIKKIGYNPDTVAFVPISGWNGDNMLEPSANMPWFKGWKVTRKDGSASGTTLLEALDCILPPTRPTDKPLRLPLQDVYKIGGIGTVPVGRVETGVLKPGMVVTFAPVNVTTEVKSVEMHHEALSEALPGDNVGFNVKNVSVKDVRRGNVAGDSKNDPPMEAAGFTAQVIILNHPGQISAGYAPVLDCHTAHIACKFAELKEKIDRRSGKKLEDGPKFLKSGDAAIVDMVPGKPMCVESFSDYPPLGRFAVRDMRQTVAVGVIKAVDKKAAGAGKVTKSAQKAQKAK
notes: also called host EF-1α; host-EF-1α
B1: binds.
